Data set [1] addresses T1, GST-SHOX2 (UniProt O60902 1-331). Put plainly: EMSA. Background: In EMSA bound probe runs differently from free probe, usually more slowly.
The target of data set [2] is T1, GST-SHOX2. Put plainly: competition.

Two molecules from publication PMC2972695 can be followed below.

T1 sequence (O60902 whole entry): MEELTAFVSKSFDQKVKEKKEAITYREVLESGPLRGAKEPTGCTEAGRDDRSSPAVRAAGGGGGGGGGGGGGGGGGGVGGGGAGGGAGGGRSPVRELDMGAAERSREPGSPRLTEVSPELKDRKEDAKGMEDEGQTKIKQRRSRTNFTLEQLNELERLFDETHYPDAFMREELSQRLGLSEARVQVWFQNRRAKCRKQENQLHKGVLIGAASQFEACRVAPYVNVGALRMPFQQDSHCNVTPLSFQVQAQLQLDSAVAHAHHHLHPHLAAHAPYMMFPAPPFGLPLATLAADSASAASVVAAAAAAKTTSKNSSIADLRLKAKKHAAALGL

B1: BMP4 EMSA oligonucleotide (34 bp conserved promoter motif) (dsDNA)
DNA 1: GGGTCTCATTATATTCAAATATTCCTTTTAGGAGCCA
DNA 2: GGGTGGCTCCTAAAAGGAATATTTGAATATAATGAGA
Consider B1, for which the binding result with GST-SHOX2 [1] is listed as “binds”.

B2: BMP4 oligonucleotide, unlabelled homologous competitor (dsDNA)
DNA 1: GGGTCTCATTATATTCAAATATTCCTTTTAGGAGCCA
DNA 2: GGGTGGCTCCTAAAAGGAATATTTGAATATAATGAGA
For B2, the binding result with GST-SHOX2 [2] is recorded as “binds”.
